From article PMC7608808 (Science Advances, 2020) come the findings set out here.

Series [1] concerns the molecule itself. As to the kind of experiment: cryo-EM structure.
Series [2] deals with the molecule itself. As to the kind of experiment: cryo-EM structure. This is another data set of the same source.

Where a chain is given by its changes, count along the chain named. Names may count otherwise. Like-named read-outs stand apart in the source and are kept apart here.

B1: SugC (natural protein)
chain: MAEIVLDRVTKSYPDGAGGVRAAVKEFSMTIADGEFIILVGPSGCGKSTTLNMIAGLEEITSGELRIGGERVNEKAPKDRDIAMVFQSYALYPHMTVRQNIAFPLTLAKVPKAEIAAKVEETAKILDLSELLDRKPGQLSGGQRQRVAMGRAIVRSPKAFLMDEPLSNLDAKLRVQMRAEISRLQDRLGTTTVYVTHDQTEAMTLGDRVVVMLAGEVQQIGTPDELYSSPANLFVAGFIGSPAMNFFPATRTDVGVRLPFGEVTLTPHMLDLLDKQARPENIIVGIRPEHIEDSALLDGYARIRALTFSVRADIVESLGADKYVHFTTEGAGAESAQLAELAADSGAGTNQFIARVSADSRVRTGEQIELAIDTTKLSIFDAATGLNLTRDITPTDPTEAAGPDAG
For the protein B1, in the series “cryo-EM structure [1]”, the binding result was “binds”.

B2: SugC (E164Q) (natural protein)
chain: B1 chain with E164Q
As to B2, the binding result in the series “cryo-EM structure [2]” is listed as “binds”.
